Experiments:
[1] = target: T1, SmPNP2 (purine nucleoside phosphorylase isoform 2) (Schistosoma mansoni, UniProt A0A0U3AGT1); experiment: crystal structure at […] Å, ternary complex with cytosine; format: binding
T1 construct: ORF of 287 amino acids, 6His-SUMO tag cleaved
T1 sequence (A0A0U3AGT1 1-287): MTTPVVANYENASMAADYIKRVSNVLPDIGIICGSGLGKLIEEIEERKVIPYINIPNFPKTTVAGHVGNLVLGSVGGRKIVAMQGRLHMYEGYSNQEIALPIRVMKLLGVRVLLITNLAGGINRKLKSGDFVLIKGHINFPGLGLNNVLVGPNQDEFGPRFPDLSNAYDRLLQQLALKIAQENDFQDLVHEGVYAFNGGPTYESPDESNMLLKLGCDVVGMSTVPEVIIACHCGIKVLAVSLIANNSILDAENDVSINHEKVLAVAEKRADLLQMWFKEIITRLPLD

[2] = target: T1, SmPNP2 (purine nucleoside phosphorylase isoform 2); experiment: ITC; crystal structure at […] Å; format: binding
[3] = target: T1, SmPNP2 (purine nucleoside phosphorylase isoform 2); experiment: crystal structure at […] Å (soaking); format: binding
purified protein = substrate: Nc1ccn([C@@H]2O[C@H](CO)[C@@H](O)[C@H]2O)c(=O)n1; experiment: purified protein; details: active site; direct H-bonds of base with Met221 and Glu203, ribose O5 with His259 and Tyr202
[4] = substrate: Nc1ncnc2c1ncn2[C@@H]1O[C@H](CO)[C@@H](O)[C@H]1O; experiment: xanthine oxidase-coupled phosphorolysis kinetics (KM); format: biochemical, Schistosoma mansoni; details: phosphate (co-substrate)
[5] = substrate: OC[C@H]1O[C@@H](n2cnc3c(O)ncnc32)[C@H](O)[C@@H]1O; experiment: as above; format: biochemical, Schistosoma mansoni; details: phosphate (co-substrate)

Molecule: O=P(O)(O)O[C@H]1O[C@H](CO)[C@@H](O)[C@H]1O [R1P, ribose-1-phosphate]
- crystal structure at 1.42 Å, ternary complex with cytosine [1]: As expected the R1P binds in SmPNP2 in a similar way to that observed for SmPNP1–R1P complex

Molecule: Nc1cc[nH]c(=O)n1 [CYT, cytosine]
- Kd [2]: 27 µM

Molecule: Nc1ncnc2c1ccn2[C@@H]1O[C@H](CO)[C@@H](O)[C@H]1O [tubercidin]
- crystal structure at 1.95 Å (soaking) [3]: three complexes were obtained: SmPNP2–tubercidin (7-deaza-adenosine), SmPNP2–hypoxanthine and SmPNP2–adenine

B1: SmPNP2 (purine nucleoside phosphorylase isoform 2) (Schistosoma mansoni) (protein)
chain: T1 sequence (A0A0U3AGT1 1-287)
notes: ORF of 287 amino acids, 6His-SUMO tag cleaved
- Km (purified protein): 76.3 µM
- Vmax (purified protein): 60 µM/min
- kcat (purified protein): 2 s⁻¹
- kcat/Km (purified protein): 26200 M⁻¹ s⁻¹
- Km [4]: 22.3 µM
- Vmax [4]: 60 µM/min
- kcat [4]: 1.02 ± 0.02 s⁻¹
- kcat/Km [4]: 46000 ± 5200 M⁻¹ s⁻¹
- Km [5]: 136.4 µM
- Vmax [5]: 360 µM/min
- kcat [5]: 7 ± 0.2 s⁻¹
- kcat/Km [5]: 50600 ± 2900 M⁻¹ s⁻¹

From paper PMC6128611, “The molecular structure of Schistosoma mansoni PNP isoform 2 provides insights into the nucleoside selectivity of PNPs” (PLoS ONE, 2018)
